# Assay results as given in patent publication US8247376B2, “NGAL for reduction and amelioration of ischemic and nephrotoxic injuries” (The Trustees of Columbia University, priority 2004, dated 2012).
# “Also recorded” adds a separate entry of the source.
# B1: NGAL: Purified endotoxin-free recombinant NGAL expressed as GST fusion protein in bacteria, thrombin cleaved (protein, UniProt P80188 21-198, looked up)
# Neutrophil …: QDSTSDLIPAPPLSKVPLQQNFQDNQFQGKWYVVGLAGNAILREDKDPQKMYATIYELKEDKSYNVTSVLFRKKKCDYWIRTFVPGCQPGEFTLGNIKSYPGLTSYLVRVVSTNYNQHAMVFFKKVSQNREYFKITLYGRTKELTSELKENFIRFSKSLGLPENHIVFPVPIDQCIDG
# Assays:
# Assay type in all cases: in vivo, mice
# tubule epithelial cells = assay: TUNEL apoptosis assay on kidney sections (nuclei per 100 cells); conditions: 24 h reflow
# Method: (§1) Purified endotoxin-free NGAL was administered either intravenously into mice via tail vein injections, subcutaneously, or intraperitoneally. In preliminary studies, animals were treated with three different concentrations of NGAL (50, 100, or 250 μg of a 250 μg/100 solution), subjected to 30 minutes of bilateral renal artery clamping one hour later, and examined after 24 hours of reflow. […] All subsequent studies as reported here were carried out using the 250 μg dose of NGAL. Comparisons were made between five different animal groups: non-ischemic controls (n=8), ischemic controls pre-treated with saline alone (n=8), NGAL pre-treated one hour prior to renal artery clamping (n=6), NGAL treated during renal artery clamping (n=6), and NGAL treated one hour post renal artery clamping (n=6).
# For the TUNEL assay to detect apoptotic nuclei, we utilized the ApoAlert DNA Fragmentation Assay Kit (Clontech). Paraffin sections were deparaffinized through zylene and descending grades of ethanol, fixed with 4% formaldehyde/PBS for 30 min at 4° C., permeabilized with proteinase K at room temperature for 15 min and 0.2% triton X-100/PBS for 15 min at 4° C., and incubated with a mixture of nucleotides and TdT enzyme for 60 min at 37° C. The reaction was terminated with 2×SSC, the sections washed with PBS, and mounted with Crystal/mount (Biomeda, Foster City, Calif.). TUNEL-positive apoptotic nuclei were detected by visualization with a fluorescent microscope. […] Merely TUNEL positive cells, in the absence of morphologic criteria, were not considered apoptotic. Slides were examined in a blinded fashion, and apoptosis was quantified by counting the number of TUNEL positive nuclei per 100 cells counted in an average of five high power (40×) fields in each section.
# [1] = Uptake of intravenous NGAL into kidney and urine (immunofluorescence, Western blot); conditions: within one hour of iv injection of 250 μg
# Method: as §1
# For NGAL detection, frozen kidney sections were permeabilized with 0.2% Triton X-100 in PBS for 10 min, blocked with goat serum for 1 hr, and incubated with primary antibody to NGAL (1:500 dilution) for 1 hr. Slides were then exposed for 30 min in the dark to secondary antibodies conjugated with Cy5 (Amersham, Arlington Heights, Ill.), and visualized with a fluorescent microscope (Zeiss Axiophot) equipped with rhodamine filters.
# [2] = system: mouse model of ATN or ischemia/reperfusion injury; assay: Kidney histology in mouse ATN model; conditions: NGAL-treated ATN kidneys vs ATN
# Method: Male C57BL/6 mice (20-25 gr; Charles River) were anesthetized with intraperitoneal pentobarbital (50 mg/kg) and placed on a heating pad under a warming light to maintain 37© core body temperature. Kidneys were exposed through an abdominal section and the right kidney was either removed or its vascular pedicle and ureter ligated. The vascular pedicle of the left kidney or both kidneys was clamped by a microaneurysm clip (Kent Scientific) for 30 minutes after right nephrectomy. This period of ischemia generated reproducible renal injury but minimized mortality. During the procedure, PBS (0.5 ml) was used to dampen the peritoneum. The animal was closed with 5-0 Nylon. Saline, NGAL, retinol-loaded retinol binding protein (RBP), enterochelin, or desferroxamine mesylate (DFO) were injected into the peritoneum or subcutaneously 15 min. prior to ischemia or 1-2 hr after reperfusion.
# After 6 or 24 hr of reperfusion, heparinized plasma, urine and kidney samples were obtained to measure NGAL (polyclonal 1:500), Heme oxygenase-1 (Stressgen, 1:2000), E-cadherin (BD Transduction Labs, 1:2000), N-cadherin (BD Transduction Labs, 1:3000) and GAPDH (Chemicon International, 1:3000) using immunoblots. Plasma was also used for creatinine and blood urea nitrogen colorimetric assays. Sagittal sections of the kidney were fixed in 4% formalin, or were snap frozen for mRNA and protein analysis. […]
# cortical tubules = assay: Fluorescein-TUNEL: percentage of cortical tubules with TUNEL-positive cell; conditions: 24 h after reperfusion, SEM; ischemic 11.5%, sham 0.5%
# From the text: After 6 or 24 hr of reperfusion, heparinized plasma, urine and kidney samples were obtained to measure NGAL (polyclonal 1:500), Heme oxygenase-1 (Stressgen, 1:2000), E-cadherin (BD Transduction Labs, 1:2000), N-cadherin (BD Transduction Labs, 1:3000) and GAPDH (Chemicon International, 1:3000) using immunoblots. Plasma was also used for creatinine and blood urea nitrogen colorimetric assays. Sagittal sections of the kidney were fixed in 4% formalin, or were snap frozen for mRNA and protein analysis. Paraffin-embedded sections (5 μm) were stained with hematoxylin-eosin or by an in situ kit (Fluorescein-TUNEL, Roche) for apoptotic nuclei or for total nuclei (Toprol, Molecular Probes). For cell proliferation analysis, BrdU was injected into the peritoneum 1 hour before sacrifice, and cryostat sections were stained with anti-BrdU (Roche) according to the manufacturer.
# [3] = NGAL trafficking after intraperitoneal or subcutaneous injection
# From the text: Recombinant human and mouse GST-NGAL were expressed in BL21 or XL1-Blue strains of E. coli (Stratagene) with additional ferric sulfate (50 Micro Molar, Sigma-Aldrich Co.). NGAL was isolated using Glutathione Sepharose 4B beads (Amersham Biosciences), eluted by thrombin cleavage (Sigma-Aldrich Co.; St. Louis, Mo.) and then further purified by gel filtration (Superdex75, SMART system, Amersham Biosciences) and examined by Coomassie gels (Biorad). BL-21 derived NGAL was loaded with iron free or iron saturated enterochelin, a siderophore (EMC Microcollections) using a 5 fold molar excess. Unbound siderophore (0.7 KD) was removed by washing (Microcon YM-10) with PBS. To produce ^55Fe or gallium (Ga) loaded NGAL we incubated the iron-free enterochelin NGAL complex with equimolar ^55Fe (18mCi) or Ga in NaCl (150 mM) Hepes (20 mM; pH 7.4) and the complex was washed 3 times (10K filter). Iodobeads (Pierce) were used to label NGAL with ^125I and unincorporated ^125I was removed by gel filtration (PD-10 column) followed by extensive dialysis (7 kDa cut off membrane, Pierce) against PBS. Alexa-568 and fluorescein isothiocyanate (Molecular Probes) was coupled to NGAL, according to the manufacturer, and then extensively dialyzed. Protein concentration was determined by Coomassie gels in comparison with bovine serum albumin standard.
# To detect delivery of NGAL to the kidney rNGAL (10 or 100 μg), Alexa 568-NGAL (100 μg), ^125I-NGAL ([…], 2×10^6 cpm), or ^55Fe loaded enterochelin-NGAL (10 μg, 1×10^6 cpm) was injected into the peritoneum and blood, urine, kidney and liver samples were obtained. NGAL was detected by immunoblot. Alexa-568 NGAL was detected by confocal microscopy (LSM Meta Detector) and NGAL mediated iron trafficking was detected by scintillation counter and by light microscopic radioautography of Epon embedded kidneys. Slides were exposed to emulsion (Polyscience) for 1 week and then developed with Microdol and counterstained with Toluidine blue. To detect lysosomes in the proximal tubule, mice were injected with Fluorescein Dextran (46 kD; 0.5 mg; Sigma) 24 hours before Alexa 568 NGAL injections. LAMP1 (Santa Cruz) was detected in cryostat sections of 4% paraformaldehyde fixed kidneys.
molecule,measurement,setting,value
B1,apoptotic tubule epithelial cells (TUNEL-positive nuclei per hundred cells),tubule epithelial cells; NGAL during ischemia,7.6%±0.8
same,apoptotic tubule epithelial cells (TUNEL-positive nuclei per hundred cells),tubule epithelial cells; NGAL one hour after ischemia,8.5%±0.8
same,apoptotic tubule epithelial cells (TUNEL-positive nuclei per hundred cells),"tubule epithelial cells; NGAL one hour before ischemia, saline 12.6%±2.2",6.7%±1.6
same,NGAL in urine by Western blot,[1],detected in the urine within one hour of injection; also recorded: easily detected in the kidney and urine
same,NGAL in kidney by immunofluorescence,[1]; ischemic mice,easily detected in a punctate cytoplasmic distribution predominantly in the proximal tubules
same,kidney histology (tubule morphology),[2],"normal epithelial morphology was preserved in the S1 and S2 segments of the proximal tubule; also recorded: preservation of cortical tubules, but residual cortical-medullary casts"
same,percentage of cortical tubules with at least one TUNEL-positive tubular cell,cortical tubules,2.9%±0.9
same,time to appearance of NGAL in the urine,[3]; injection of 100 μg exogenous NGAL,≤ 10 min
same,injected NGAL recovered in the urine in the first hour,"[3]; mouse, in vivo",0.1-0.2%
